Data reported in paper PMC7954794, “Protein context shapes the specificity of SH3 domain-mediated interactions in vivo” (Nature Communications, 2021).

System: Abp1 PPIs
Assay: DHFR-PCA of Abp1 SH3-swapped baits (Fig. 2B-D, S2C, S2F);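 as to Protein-protein interaction distance between Abp1 SH3-swapped baits, to ABP1: Euclidean distance between DHFR-PCA score profiles of the baits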;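 as to Protein-protein interaction distance between Abp1 SH3-swapped baits, to BEM1-2: Euclidean distance between DHFR-PCA score profiles of the baits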;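 as to Protein-protein interaction distance between Abp1 SH3-swapped baits, to BOI1: Euclidean distance between DHFR-PCA score profiles of the baits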;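 as to Protein-protein interaction distance between Abp1 SH3-swapped baits, to BZZ1-1: Euclidean distance between DHFR-PCA score profiles of the baits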
Assay type: cell-based, Saccharomyces cerevisiae
How it was run: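 Yeast DHFR-PCA in which Abp1 baits, carrying their SH3 replaced by CRISPR–Cas9 with one of 27 yeast SH3s or human CTTN, HCLS1 or DBNL SH3s, were mated against 575 SH3-associated DHFR F[3] preys plus 40 negative controls. Four tests were run per PPI. Diploids were selected twice (48 h, 30 °C), then grown 4 days on PCA selection media.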

[1] = number of PPIs, difference, Abp1 SH3-swapped with the listed SH3, Fig2D,S2F

B1: MYO3 (protein, UniProt P36006 1-1272, looked up)
Myosin-3: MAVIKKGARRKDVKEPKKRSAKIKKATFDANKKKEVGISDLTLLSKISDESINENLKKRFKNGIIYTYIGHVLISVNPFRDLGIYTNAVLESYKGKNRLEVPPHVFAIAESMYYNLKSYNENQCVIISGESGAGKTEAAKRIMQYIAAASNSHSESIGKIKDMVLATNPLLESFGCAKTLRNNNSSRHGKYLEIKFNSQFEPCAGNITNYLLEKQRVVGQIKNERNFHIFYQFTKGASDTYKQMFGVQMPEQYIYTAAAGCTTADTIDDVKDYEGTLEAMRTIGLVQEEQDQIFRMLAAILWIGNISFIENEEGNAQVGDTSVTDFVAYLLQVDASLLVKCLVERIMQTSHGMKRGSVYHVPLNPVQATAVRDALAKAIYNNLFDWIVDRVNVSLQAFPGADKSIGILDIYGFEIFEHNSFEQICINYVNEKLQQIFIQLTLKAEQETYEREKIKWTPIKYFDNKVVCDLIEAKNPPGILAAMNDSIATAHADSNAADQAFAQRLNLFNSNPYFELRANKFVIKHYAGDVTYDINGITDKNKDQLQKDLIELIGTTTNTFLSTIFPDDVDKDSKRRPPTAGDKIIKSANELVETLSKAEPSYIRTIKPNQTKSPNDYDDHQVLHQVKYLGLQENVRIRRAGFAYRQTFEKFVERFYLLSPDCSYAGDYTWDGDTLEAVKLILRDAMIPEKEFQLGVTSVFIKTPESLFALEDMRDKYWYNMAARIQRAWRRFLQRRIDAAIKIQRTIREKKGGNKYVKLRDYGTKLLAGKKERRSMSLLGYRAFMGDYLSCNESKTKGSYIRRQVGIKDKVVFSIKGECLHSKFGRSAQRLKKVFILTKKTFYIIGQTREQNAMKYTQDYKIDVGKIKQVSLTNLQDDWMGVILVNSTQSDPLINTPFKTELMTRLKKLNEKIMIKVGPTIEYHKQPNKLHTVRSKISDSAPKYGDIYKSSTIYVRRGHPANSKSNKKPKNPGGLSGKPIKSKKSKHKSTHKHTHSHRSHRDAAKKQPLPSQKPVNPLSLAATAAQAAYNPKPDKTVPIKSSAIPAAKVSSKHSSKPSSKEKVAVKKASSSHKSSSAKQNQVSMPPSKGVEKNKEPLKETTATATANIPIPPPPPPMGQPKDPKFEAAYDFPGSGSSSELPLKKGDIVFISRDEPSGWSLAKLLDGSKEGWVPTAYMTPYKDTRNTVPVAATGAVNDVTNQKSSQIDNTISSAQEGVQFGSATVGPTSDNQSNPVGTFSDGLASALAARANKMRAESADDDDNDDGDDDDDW
Protein-protein interaction distance between Abp1 SH3-swapped baits, to ABP1 (Abp1 bait with swapped SH3, distance to bait with ABP1 SH3, sheet Fig2C): 12.85 | Protein-protein interaction distance between Abp1 SH3-swapped baits, to BBC1 (distance to Abp1 bait with BBC1 SH3, sheet Fig2C): 13.06 | Protein-protein interaction distance between Abp1 SH3-swapped baits, to BEM1-1 (distance to Abp1 bait with BEM1-1 SH3, sheet Fig2C): 17.48 | Protein-protein interaction distance between Abp1 SH3-swapped baits, to BEM1-2 (distance to Abp1 bait with BEM1-2 SH3, sheet Fig2C): 35.25 | Protein-protein interaction distance between Abp1 SH3-swapped baits, to BOI1 (distance to Abp1 bait with BOI1 SH3, sheet Fig2C): 14.63 | Protein-protein interaction distance between Abp1 SH3-swapped baits, to BOI2 (distance to Abp1 bait with BOI2 SH3, sheet Fig2C): 17.97 | Protein-protein interaction distance between Abp1 SH3-swapped baits, to BUD14 (distance to Abp1 bait with BUD14 SH3, sheet Fig2C): 20.78 | Protein-protein interaction distance between Abp1 SH3-swapped baits, to BZZ1-1 (distance to Abp1 bait with BZZ1-1 SH3, sheet Fig2C): 10.1 | Protein-protein interaction distance between Abp1 SH3-swapped baits, to BZZ1-2 (distance to Abp1 bait with BZZ1-2 SH3, sheet Fig2C): 14.12 | Protein-protein interaction distance between Abp1 SH3-swapped baits, to CDC25 (distance to Abp1 bait with CDC25 SH3, sheet Fig2C): 29.41 | Protein-protein interaction distance between Abp1 SH3-swapped baits, to CTTN (distance to Abp1 bait with CTTN SH3, sheet Fig2C): 15.21 | Protein-protein interaction distance between Abp1 SH3-swapped baits, to CYK3 (distance to Abp1 bait with CYK3 SH3, sheet Fig2C): 30.11 | Protein-protein interaction distance between Abp1 SH3-swapped baits, to DBNL (distance to Abp1 bait with DBNL SH3, sheet Fig2C): 10.74 | Protein-protein interaction distance between Abp1 SH3-swapped baits, to FUS1 (distance to Abp1 bait with FUS1 SH3, sheet Fig2C): 21.97 | Protein-protein interaction distance between Abp1 SH3-swapped baits, to HCLS1 (distance to Abp1 bait with HCLS1 SH3, sheet Fig2C): 11.19 | Protein-protein interaction distance between Abp1 SH3-swapped baits, to HOF1 (distance to Abp1 bait with HOF1 SH3, sheet Fig2C): 33.94 | Protein-protein interaction distance between Abp1 SH3-swapped baits, to HSE1 (distance to Abp1 bait with HSE1 SH3, sheet Fig2C): 11.17 | Protein-protein interaction distance between Abp1 SH3-swapped baits, to LSB1 (distance to Abp1 bait with LSB1 SH3, sheet Fig2C): 9.135 | Protein-protein interaction distance between Abp1 SH3-swapped baits, to LSB3 (distance to Abp1 bait with LSB3 SH3, sheet Fig2C): 9.625 | Protein-protein interaction distance between Abp1 SH3-swapped baits, to MYO3 (distance to Abp1 bait with MYO3 SH3, sheet Fig2C): 0.00 | Protein-protein interaction distance between Abp1 SH3-swapped baits, to MYO5 (distance to Abp1 bait with MYO5 SH3, sheet Fig2C): 5.861 | Protein-protein interaction distance between Abp1 SH3-swapped baits, to NBP2 (distance to Abp1 bait with NBP2 SH3, sheet Fig2C): 19.88 | Protein-protein interaction distance between Abp1 SH3-swapped baits, to PEX13 (distance to Abp1 bait with PEX13 SH3, sheet Fig2C): 8.874 | Protein-protein interaction distance between Abp1 SH3-swapped baits, to PIN3 (distance to Abp1 bait with PIN3 SH3, sheet Fig2C): 8.374 | Protein-protein interaction distance between Abp1 SH3-swapped baits, to RVS167 (distance to Abp1 bait with RVS167 SH3, sheet Fig2C): 9.049 | Protein-protein interaction distance between Abp1 SH3-swapped baits, to SDC25 (distance to Abp1 bait with SDC25 SH3, sheet Fig2C): 35.91 | Protein-protein interaction distance between Abp1 SH3-swapped baits, to SHO1 (distance to Abp1 bait with SHO1 SH3, sheet Fig2C): 10.66 | Protein-protein interaction distance between Abp1 SH3-swapped baits, to SLA1-1 (distance to Abp1 bait with SLA1-1 SH3, sheet Fig2C): 31.98 | Protein-protein interaction distance between Abp1 SH3-swapped baits, to SLA1-2 (distance to Abp1 bait with SLA1-2 SH3, sheet Fig2C): 22.64 | Protein-protein interaction distance between Abp1 SH3-swapped baits, to SLA1-3 (distance to Abp1 bait with SLA1-3 SH3, sheet Fig2C): 9.056 | Protein-protein interaction distance between Abp1 SH3-swapped baits, to YSC84 (distance to Abp1 bait with YSC84 SH3, sheet Fig2C): 9.995 | PPIs gained by Abp1 - SH3-dependent PPIs gained by Abp1 [1]: 24 | SH3-dependent PPIs - SH3-dependent PPIs gained by Abp1 [1]: 13 | SH3-dependent PPIs gained by Abp1 (number of PPIs, Abp1 SH3-swapped with the listed SH3, DHFR-PCA, Fig2D,S2F): 4
